Data from publication doi:10.1101/2022.11.05.515280.
Like-named read-outs stand apart in the source and are kept apart here. Each block holds one molecule with its values, some of them ahead of it.

Legend:
[1] = target: human Mcl-1 ΔPESTΔTM (human); assay: NMR titration
[2] = target: human Mcl-1 ΔPESTΔTM (human); assay: SEC + other: SAXS
[3] = target: human Mcl-1 ΔPESTΔTM (human); assay: NMR titration; remark: listed apart in the source

relative population of Mcl-1 bound, in the mix of three peptides [1]: 55%
Molecule: Mule BH3 peptide (MuleBH3)

stoichiometry N [2]: 1
B1: full length human TCTP (Translationally Controlled Tumour Protein) (natural protein)
chain: MIIYRDLISHDEMFSDIYKIREIADGLCLEVEGKMVSRTEGNIDDSLIGGNASAEGPEGEGTESTVITGVDIVMNHHLQETSFTKEAYKKYIKDYMKSIKGKLEEQRPERVKPFMTGAAEQIKHILANFKNYQFFIGENMNPDGMVALLDYREDGVTPYMIFFKDGLEMEKC

relative population of Mcl-1 bound, in the mix of three peptides [3]: 45%
Molecule: DEMFSIIYKIREIADGLCLEVE [TCTP BH3-like peptide D16I mutant (TCTP_(BH3D16I))]

Kd [3]: 7.9 µM
fold weaker relative affinity than TCTPBH3D16I and MuleBH3 [3]: > 10 fold
Molecule: DEMFSDIYKIREIADGLCLEVE [TCTP BH3-like peptide (TCTPBH3)]
